In patent publication US20240279288A1, “APPLICATION OF PLANT JAZ PROTEINS AND DERIVED POLYPEPTIDES IN PREVENTION AND TREATMENT OF HUMAN AND ANIMAL TUMORS” (ANYANG INSTITUTE OF SINO-COTTON INDUSTRY INNOVATION, priority 2021, published 2024):

Columns and labels:
c-Myc [1] = molecular target: T1, c-Myc (Homo sapiens, UniProt P01106); assay: CO-IP with c-Myc in HEK293 cells; type: binding; parameters: host or cells: HEK293 cells (method paragraph: 293T)
Experimental: Steps of method of CO-IP experiment: Non-denaturing lysate was added to 293T cell culture plate (Pricella, Cat. No.: CL-0005), and the cells were completely lysed at 4° C. The lysate was centrifuged at 12,000 rpm for 10 min and the supernatant was collected. The corresponding antibody was added to the obtained non-denatured protein solution, which was incubated overnight at 4° C. Pierce™ protein A/G magnetic agarose (Thermo Fisher Scientific, Inc.) were washed with lysis buffer, followed by addition pre-treated beads to the cell lysate, and incubation at room temperature for 2 hours. The mixture was centrifuged at 4° C., 2,500 rpm for 5 min with supernatant removed, and the agarose beads were washed 5 times with 1 ml of lysis buffer. An appropriate amount of protein loading buffer was added to the pellet, and the sample was incubated in water bath at 100° C. for 10 min. The band of interest was detected by Western blotting.
Immunoprecipitation method (method of the experiment as Example 3) was used.

c-Myc [2] = molecular target: T1, c-Myc; assay: LUC experiment in tobacco leaves with c-Myc; type: binding; parameters: with the full length of c-Myc and NMYC, respectively; expressed in transfected cells; host or cells: yeast Y2HGold
Source text: Using the method of LUC experiment, c-Myc (NCBI accession number: NM_002467.6) was subcloned to pCAMBIA NLuc vector (Chen, H., et al. “Firefly Luciferase Complementation Imaging Assay for Protein-Protein Interactions in Plants.” Plant Physiology 146.2(2008):368-376.) between the KpnI and SalI cleavage sites, and GhJAZ1 (SEQ ID No. 39) was subcloned to pCAMBIA-CLuc vector (Chen, H., et al. “Firefly Luciferase Complementation Imaging Assay for Protein-Protein Interactions in Plants.” Plant Physiology 146.2(2008):368-376.) between the KpnI and SalI cleavage sites. The constructed recombinant plasmids verified to be positive by sequencing were transformed into Agrobacterium GV3101 (pSoup-p19) (Shanghai Weidi biology technology co., Ltd, Cat. No.: AC1003), which were co-transfected into tobacco leaves. 2-3 days after injection, the infected leaves coated with the fluorescent substrate were placed in a dark chamber of the instrument for at least 6 min before taking images to quench fluorescence, followed by observation on the Nightowl-II LB983 instrument, using IndigoBasic software under the luciferase-5 min setting conditions. Cultivation was performed after co-infection. If there is interaction, LUC luciferase is expressed, and luminescence is detected after substrate application. As shown in F in FIG. 6, GhJAZ1 interacts with c-Myc.

T1 sequence (P01106 whole entry): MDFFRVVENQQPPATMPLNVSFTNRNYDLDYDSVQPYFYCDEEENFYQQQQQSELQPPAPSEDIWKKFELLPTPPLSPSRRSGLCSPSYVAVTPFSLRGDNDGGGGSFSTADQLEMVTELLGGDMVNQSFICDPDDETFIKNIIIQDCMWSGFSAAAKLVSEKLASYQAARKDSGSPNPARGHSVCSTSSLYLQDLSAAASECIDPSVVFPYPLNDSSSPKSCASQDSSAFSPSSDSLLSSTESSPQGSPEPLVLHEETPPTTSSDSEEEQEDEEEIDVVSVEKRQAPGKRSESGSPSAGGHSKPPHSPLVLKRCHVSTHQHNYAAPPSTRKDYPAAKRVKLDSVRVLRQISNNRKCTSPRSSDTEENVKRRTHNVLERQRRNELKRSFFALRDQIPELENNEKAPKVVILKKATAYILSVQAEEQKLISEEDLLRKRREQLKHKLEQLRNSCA

B1: GhJAZ1: cotton JAZ1 protein, gene number Gh_A05G0260, sequence SEQ ID No. 4; prokaryotically expressed with His tag, about 30 KD (protein)
chain: MSSCSESTAMKPARSPEKPSFAQTCNLLSQYLKEKGSFGDLSLGMTCNVEANGTPVVPPPTMNLFPLNDKSDDVCGRNGGNPKNLTSMDLFPQQAGLASKDDSPNKLEPQTAPMTIFYGGQVIVFNDFPANKAKEIMLLASNSSSQSNNSFNPIPFTSSIARSPIESSIGVPPTSKPVHPAQRAVPGDLPIARRASLHRFLEKRKDRITAKAPYQINNSAAAPSLSGDNKSWLGLAAQSP
modifications: His tag
notes: prokaryotically expressed with His tag, about 30 KD
B1 was tested, and the “interaction with c-Myc” value (c-Myc [1]) was “interacted” and the “interaction with c-Myc” value (c-Myc [2]) was “interacts”.
